Data published in the supplement of paper PMC5998384.

Experiments:
HeLa Kyoto [1] = assay: solubility change mitosis vs G1/S (difference of NP-40 vs SDS log2 ratios) (log2 ratio difference); higher = more soluble in mitosis
HeLa Kyoto [2] = assay: thermal stability score vs G1/S (z-score of summed log2 fold changes over temperatures); higher = more thermally stable than in G1/S
HeLa Kyoto [3] = assay: melting temperature (median over replicates), in situ; higher = more thermally stable
HeLa Kyoto [4] = assay: solubility in G1/S (NP-40 vs SDS abundance) (log2 ratio); higher = more soluble; details: cell cycle stage: G1/S
[5] = cell cycle stage: early G1 (4.5 h after nocodazole release)
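For melting temperature (median over replicates), in situ in this document: HeLa Kyoto cells synchronized by double thymidine or nocodazole block, proteins quantified by TMT10plex mass spectrometry, three independent biological replicates.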
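For solubility change mitosis vs G1/S (difference of NP-40 vs SDS log2 ratios) in this document: synchronized HeLa Kyoto cells (double thymidine block for G1/S, nocodazole release for mitosis), protein amounts in NP-40 versus SDS lysates quantified by mass spectrometry, three biological replicates.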
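For solubility in G1/S (NP-40 vs SDS abundance) in this document: HeLa Kyoto cells arrested at G1/S by double thymidine block, proteins quantified by TMT10plex mass spectrometry in mild NP-40 versus SDS extracts, three biological replicates.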
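For thermal stability score vs G1/S (z-score of summed log2 fold changes over temperatures) in this document: synchronized HeLa Kyoto cells, proteins quantified by TMT10plex mass spectrometry, three biological replicates, mitosis taken 0.5 h after nocodazole release, G1/S directly after double thymidine block.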

Sequence of APTX (chain, as listed by the source): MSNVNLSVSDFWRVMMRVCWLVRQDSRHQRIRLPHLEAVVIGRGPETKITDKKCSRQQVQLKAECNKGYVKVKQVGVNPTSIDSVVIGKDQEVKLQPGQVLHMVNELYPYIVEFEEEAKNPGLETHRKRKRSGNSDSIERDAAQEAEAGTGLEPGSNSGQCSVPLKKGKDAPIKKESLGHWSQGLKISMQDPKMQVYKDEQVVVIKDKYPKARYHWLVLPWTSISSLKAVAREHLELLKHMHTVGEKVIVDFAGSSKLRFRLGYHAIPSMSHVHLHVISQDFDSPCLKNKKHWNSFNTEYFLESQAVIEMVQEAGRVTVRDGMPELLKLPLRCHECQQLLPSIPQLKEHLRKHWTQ

| Substance | solubility change mitosis (log2) (HeLa Kyoto [1]) | thermal stability score (HeLa Kyoto [2]; [5]) | thermal stability score (HeLa Kyoto [2]; cell cycle stage: mitosis) | melting temperature (HeLa Kyoto [3]; cell cycle stage: G1/S) [°C] | melting temperature (HeLa Kyoto [3]; cell cycle stage: mitosis) [°C] | solubility in G1/S (log2) (HeLa Kyoto [4]) |
| --- | --- | --- | --- | --- | --- | --- |
| MSWMFKRDPVWKYLQTVQYGVHGNFPRLSYPTFFPRFEFQDVIPPDDFLTSDEEVDSVLFGSLRGHVVGLRYYTGVVNNNEMVALQRDPNNPYDKNAIKVNNVNGNQVGHLKKELAGALAYIMDNKLAQIEGVVPFGANNAFTMPLHMTFWGKEENRKAVSDQLKKHGFKLGPAPKTLGFNLESGWGSGRAGPSYSMPVHAAVQMTTEQLKTEFDKLFEDLKEDDKTHEMEPAEAIETPLLPHQKQALAWMVSRENSKELPPFWEQRNDLYYNTITNFSEKDRPENVHGGILADDMGLGKTLTAIAVILTNFHDGRPLPIERVKKNLLKKEYNVNDDSMKLGGNNTSEKADGLSKDASRCSEQPSISDIKEKSKFRMSELSSSRPKRRKTAVQYIESSDSEEIETSELPQKMKGKLKNVQSETKGRAKAGSSKVIEDVAFACALTSSVPTTKKKMLKKGACAVEGSKKTDVEERPRTTLIICPLSVLSNWIDQFGQHIKSDVHLNFYVYYGPDRIREPALLSKQDIVLTTYNILTHDYGTKGDSPLHSIRWLRVILDEGHAIRNPNAQQTKAVLDLESERRWVLTGTPIQNSLKDLWSLLSFLKLKPFIDREWWHRTIQRPVTMGDEGGLRRLQSLIKNITLRRTKTSKIKGKPVLELPERKVFIQHITLSDEERKIYQSVKNEGRATIGRYFNEGTVLAHYADVLGLLLRLRQICCHTYLLTNAVSSNGPSGNDTPEELRKKLIRKMKLILSSGSDEECAICLDSLTVPVITHCAHVFCKPCICQVIQNEQPHAKCPLCRNDIHEDNLLECPPEELARDSEKKSDMEWTSSSKINALMHALTDLRKKNPNIKSLVVSQFTTFLSLIEIPLKASGFVFTRLDGSMAQKKRVESIQCFQNTEAGSPTIMLLSLKAGGVGLNLSAASRVFLMDPAWNPAAEDQCFDRCHRLGQKQEVIITKFIVKDSVEENMLKIQNKKRELAAGAFGTKKPNADEMKQAKINEIRTLIDL [HLTF] | -0.0719 | 2.36 | 4.68 | 48.9 | 50.2 | -0.124 |
| MSPTISHKDSSRQRRPGNFSHSLDMKSGPLPPGGWDDSHLDSAGREGDREALLGDTGTGDFLKAPQSFRAELSSILLLLFLYVLQGIPLGLAGSIPLILQSKNVSYTDQAFFSFVFWPFSLKLLWAPLVDAVYVKNFGRRKSWLVPTQYILGLFMIYLSTQVDRLLGNTDDRTPDVIALTVAFFLFEFLAATQDIAVDGWALTMLSRENVGYASTCNSVGQTAGYFLGNVLFLALESADFCNKYLRFQPQPRGIVTLSDFLFFWGTVFLITTTLVALLKKENEVSVVKEETQGITDTYKLLFAIIKMPAVLTFCLLILTAKIGFSAADAVTGLKLVEEGVPKEHLALLAVPMVPLQIILPLIISKYTAGPQPLNTFYKAMPYRLLLGLEYALLVWWTPKVEHQGGFPIYYYIVVLLSYALHQVTVYSMYVSIMAFNAKVSDPLIGGTYMTLLNTVSNLGGNWPSTVALWLVDPLTVKECVGASNQNCRTPDAVELCKKLGGSCVTALDGYYVESIICVFIGFGWWFFLGPKFKKLQDEGSSSWKCKRNN [SLC33A1] | -0.141 | -1.24 | -1.12 | 58.5 | 57.9 | -0.0645 |
| HELZ | -0.131 | -0.338 | -0.16 | 52.3 | 52.3 | 0.00285 |
| MCAAQMPPLAHIFRGTFVHSTWTCPMEVLRDHLLGVSDSGKIVFLEEASQQEKLAKEWCFKPCEIRELSHHEFFMPGLVDTHIHASQYSFAGSSIDLPLLEWLTKYTFPAEHRFQNIDFAEEVYTRVVRRTLKNGTTTACYFATIHTDSSLLLADITDKFGQRAFVGKVCMDLNDTFPEYKETTEESIKETERFVSEMLQKNYSRVKPIVTPRFSLSCSETLMGELGNIAKTRDLHIQSHISENRDEVEAVKNLYPSYKNYTSVYDKNNLLTNKTVMAHGCYLSAEELNVFHERGASIAHCPNSNLSLSSGFLNVLEVLKHEVKIGLGTDVAGGYSYSMLDAIRRAVMVSNILLINKVNEKSLTLKEVFRLATLGGSQALGLDGEIGNFEVGKEFDAILINPKASDSPIDLFYGDFFGDISEAVIQKFLYLGDDRNIEEVYVGGKQVVPFSSSV [GDA] | -0.0926 | -1.49 | -2.29 | 61.9 | 63.7 | 0.0143 |
| MAGSRQRGLRARVRPLFCALLLSLGRFVRGDGVGGDPAVALPHRRFEYKYSFKGPHLVQSDGTVPFWAHAGNAIPSSDQIRVAPSLKSQRGSVWTKTKAAFENWEVEVTFRVTGRGRIGADGLAIWYAENQGLEGPVFGSADLWNGVGIFFDSFDNDGKKNNPAIVIIGNNGQIHYDHQNDGASQALASCQRDFRNKPYPVRAKITYYQNTLTVMINNGFTPDKNDYEFCAKVENMIIPAQGHFGISAATGGLADDHDVLSFLTFQLTEPGKEPPTPDKEISEKEKEKYQEEFEHFQQELDKKKEEFQKGHPDLQGQPAEEIFESVGDRELRQVFEGQNRIHLEIKQLNRQLDMILDEQRRYVSSLTEEISKRGAGMPGQHGQITQQELDTVVKTQHEILRQVNEMKNSMSETVRLVSGMQHPGSAGGVYETTQHFIDIKEHLHIVKRDIDNLVQRNMPSNEKPKCPELPPFPSCLSTVHFIIFVVVQTVLFIGYIMYRSQQEAAAKKFF [LMAN1] | -0.0873 | 3.5 | 5.07 | 53.3 | 53.5 | 0.173 |
| APTX | 0.0501 | 0.58 | 1.59 | 48.5 | 50.7 | -0.219 |
| SVEP1 | -0.0333 | 1.39 | 1.6 | 54.1 | 55.1 | -0.163 |
| MKLGRAVLGLLLLAPSVVQAVEPISLGLALAGVLTGYIYPRLYCLFAECCGQKRSLSREALQKDLDDNLFGQHLAKKIILNAVFGFINNPKPKKPLTLSLHGWTGTGKNFVSKIIAENIYEGGLNSDYVHLFVATLHFPHASNITLYKDQLQLWIRGNVSACARSIFIFDEMDKMHAGLIDAIKPFLDYYDLVDGVSYQKAMFIFLSNAGAERITDVALDFWRSGKQREDIKLKDIEHALSVSVFNNKNSGFWHSSLIDRNLIDYFVPFLPLEYKHLKMCIRVEMQSRGYEIDEDIVSRVAEEMTFFPKEERVFSDKGCKTVFTKLDYYYDD [TOR1A] | -0.0946 | 3.37 | 4.06 | 53.7 | 53.5 | 0.000474 |
| YLPM1 | 0.495 | 0.777 | 0.487 | 48.3 | 48.3 | -0.708 |
| MFVPCGESAPDLAGFTLLMPAVSVGNVGQLAMDLIISTLNMSKIGYFYTDCLVPMVGNNPYATTEGNSTELSINAEVYSLPSRKLVALQLRSIFIKYKSKPFCEKLLSWVKSSGCARVIVLSSSHSYQRNDLQLRSTPFRYLLTPSMQKSVQNKIKSLNWEEMEKSRCIPEIDDSEFCIRIPGGGITKTLYDESCSKEIQMAVLLKFVSEGDNIPDALGLVEYLNEWLQILKPLSDDPTVSASRWKIPSSWRLLFGSGLPPALF [PSMG2] | -0.0561 | -0.904 | -2.71 | 54.2 | 53.9 | 0.264 |
| MPMFIVNTNVPRASVPDGFLSELTQQLAQATGKPPQYIAVHVVPDQLMAFGGSSEPCALCSLHSIGKIGGAQNRSYSKLLCGLLAERLRISPDRVYINYYDMNAANVGWNNSTFA [MIF] | -0.0337 | -7.37 | -7.71 | 53.5 | 52.5 | 0.405 |
| MANVPWAEVCEKFQAALALSRVELHKNPEKEPYKSKYSARALLEEVKALLGPAPEDEDERPEAEDGPGAGDHALGLPAEVVEPEGPVAQRAVRLAVIEFHLGVNHIDTEELSAGEEHLVKCLRLLRRYRLSHDCISLCIQAQNNLGILWSEREEIETAQAYLESSEALYNQYMKEVGSPPLDPTERFLPEEEKLTEQERSKRFEKVYTHNLYYLAQVYQHLEMFEKAAHYCHSTLKRQLEHNAYHPIEWAINAATLSQFYINKLCFMEARHCLSAANVIFGQTGKISATEDTPEAEGEVPELYHQRKGEIARCWIKYCLTLMQNAQLSMQDNIGELDLDKQSELRALRKKELDEEESIRKKAVQFGTGELCDAISAVEEKVSYLRPLDFEEARELFLLGQHYVFEAKEFFQIDGYVTDHIEVVQDHSALFKVLAFFETDMERRCKMHKRRIAMLEPLTVDLNPQYYLLVNRQIQFEIAHAYYDMMDLKVAIADRLRDPDSHIVKKINNLNKSALKYYQLFLDSLRDPNKVFPEHIGEDVLRPAMLAKFRVARLYGKIITADPKKELENLATSLEHYKFIVDYCEKHPEAAQEIEVELELSKEMVSLLPTKMERFRTKMALT [KIF1BP] | -0.161 | 0.769 | 2.03 | 49 | 49 | 0.141 |
